According to patent US20260139007A1 (SANFORD BURNHAM PREBYS MEDICAL DISCOVERY INSTITUTE, published 2026):
Bridge positions count the residues as written; N and C are the ends. Square brackets hold non-standard residues; d marks the D form. Ends that are not written are not given here. βAla = NCCC(=O)O

Assays:
[1] = molecular target: T1, EphA4 Fc (human EphA4 Fc, #CJ75, Novoprotein, or mouse EphA4 Fc, #641-A4, R&D Systems/BioTechne) (human or mouse, UniProt P54764 20-547); experiment: competition ELISA, inhibition of ephrin-A5 AP binding to immobilized EphA4 Fc
T1 construct: extracellular domain; bought reagents; also called EphA4 extracellular domain fused to the Fc portion of an antibody; not shown: Fc portion of an antibody

[2] = molecular target: T1, EphA4 Fc (human EphA4 Fc, #CJ75, …); experiment: competition ELISA, inhibition of ephrin-A5 AP binding to immobilized EphA4 Fc, with 20 mg/ml BSA
[3] = molecular target: T1, EphA4 Fc (human EphA4 Fc, #CJ75, …); experiment: competition ELISA, ephrin-A5 AP on immobilized EphA4 Fc, with and without 20 mg/mL BSA

T1 sequence (P54764 20-547): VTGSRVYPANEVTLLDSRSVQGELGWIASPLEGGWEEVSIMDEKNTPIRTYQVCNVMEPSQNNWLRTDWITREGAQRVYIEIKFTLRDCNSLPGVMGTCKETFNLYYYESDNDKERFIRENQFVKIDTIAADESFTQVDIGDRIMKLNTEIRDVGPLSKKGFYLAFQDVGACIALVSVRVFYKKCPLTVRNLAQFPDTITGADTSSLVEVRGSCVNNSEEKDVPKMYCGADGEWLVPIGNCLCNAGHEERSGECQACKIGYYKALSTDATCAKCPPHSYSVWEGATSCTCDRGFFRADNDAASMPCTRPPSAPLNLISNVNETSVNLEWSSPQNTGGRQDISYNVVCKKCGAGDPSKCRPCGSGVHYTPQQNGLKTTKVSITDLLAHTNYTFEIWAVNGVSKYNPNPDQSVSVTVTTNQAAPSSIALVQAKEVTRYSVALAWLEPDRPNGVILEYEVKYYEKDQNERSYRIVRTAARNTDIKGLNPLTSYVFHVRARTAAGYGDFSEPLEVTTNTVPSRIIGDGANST

B1: compound 21 (peptide)
peptide: [βAla]PYCVYR[βAla]SWSCRLIEDICLPRWGCLWEDD-NH2
modifications: disulfide 4-12, 19-25; N-terminus assumed
SMILES: CC[C@H](C)[C@H](NC(=O)[C@H](CC(C)C)NC(=O)[C@H](CCCNC(=N)N)NC(=O)[C@@H]1CSSC[C@H](NC(=O)[C@H](Cc2ccc(O)cc2)NC(=O)[C@@H]2CCCN2C(=O)CCN)C(=O)N[C@@H](C(C)C)C(=O)N[C@@H](Cc2ccc(O)cc2)C(=O)N[C@@H](CCCNC(=N)N)C(=O)NCCC(=O)N[C@@H](CO)C(=O)N[C@@H](Cc2c[nH]c3ccccc23)C(=O)N[C@@H](CO)C(=O)N1)C(=O)N[C@@H](CCC(=O)O)C(=O)N[C@@H](CC(=O)O)C(=O)N[C@H](C(=O)N[C@H]1CSSC[C@@H](C(=O)N[C@@H](CC(C)C)C(=O)N[C@@H](Cc2c[nH]c3ccccc23)C(=O)N[C@@H](CCC(=O)O)C(=O)N[C@@H](CC(=O)O)C(=O)N[C@@H](CC(=O)O)C(N)=O)NC(=O)CNC(=O)[C@H](Cc2c[nH]c3ccccc23)NC(=O)[C@H](CCCNC(=N)N)NC(=O)[C@@H]2CCCN2C(=O)[C@H](CC(C)C)NC1=O)[C@@H](C)CC
notes: also called peptide 21
Q: Which IC50 [1] does the source give for B1 here?
A: 18 nM

Q: And the IC50 [2]?
A: 130 nM

Q: And the “fold decrease in potency with BSA against buffer” value [3]?
A: ~8 fold
